# From paper PMC4072508, “Genome-Wide Prediction and Validation of Peptides That Bind Human Prosurvival Bcl-2 Proteins” (PLoS Computational Biology, 2014)
# T1: Mcl-1, Q07820
# T1 chain: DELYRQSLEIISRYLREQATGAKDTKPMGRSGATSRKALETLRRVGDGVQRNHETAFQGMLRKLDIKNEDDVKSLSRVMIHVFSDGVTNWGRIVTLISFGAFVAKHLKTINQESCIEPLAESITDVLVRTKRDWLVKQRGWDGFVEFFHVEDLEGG
# T2: Bfl-1, Q16548
# T2 chain: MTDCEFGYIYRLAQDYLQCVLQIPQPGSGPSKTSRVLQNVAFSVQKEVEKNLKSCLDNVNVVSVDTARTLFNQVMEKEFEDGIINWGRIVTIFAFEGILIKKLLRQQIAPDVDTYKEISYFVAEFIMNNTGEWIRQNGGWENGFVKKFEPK
# T3: Bcl-w, Q92843
# T3 chain: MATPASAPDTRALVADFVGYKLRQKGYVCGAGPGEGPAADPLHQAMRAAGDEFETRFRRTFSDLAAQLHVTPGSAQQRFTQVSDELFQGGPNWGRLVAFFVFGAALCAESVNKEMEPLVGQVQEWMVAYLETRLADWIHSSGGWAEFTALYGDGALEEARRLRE
# Molecular target: Bcl-xL, Q07817
# Sequence (Q07817 1-209): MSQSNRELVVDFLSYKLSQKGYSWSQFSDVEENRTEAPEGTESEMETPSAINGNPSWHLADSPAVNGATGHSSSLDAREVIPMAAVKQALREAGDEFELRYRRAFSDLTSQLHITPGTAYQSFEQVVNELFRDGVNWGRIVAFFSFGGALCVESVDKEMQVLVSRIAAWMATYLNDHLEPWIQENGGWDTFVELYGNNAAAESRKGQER
# Assay: peptide SPOT array, c-Myc-tagged receptor at 1 uM or 100 nM, anti-c-Myc-Cy3
row,Binder,SPOT signal as a fraction of Bim BH3's signal on the same receptor and array
1,IKEAADIIQKLHLIAQELPFDRFSEV [EXOC5],0.11
2,PFKKMDFSRNLYDIGEQLDSEDLASL [CASP8],0.07
3,KFMKTIPGTALVEMGDEYAVERAVTH [HNRPLL],0.04
4,NMSNYSSSSLLSGAGKDSLVEHDEEF [KIAA0367],0.03
5,KWTAEEVVLWLEQLGPWASLYRERFL [BFAR],0.07
6,EGMRTILVDWLVEVGEEYKLRAETLY [CCNA1],0.05
7,DGLDLPSETDLRILGCELIQAAGILL [CCNL1],0.03
8,GAQHSTMTSTLRRLGEDIFKGVVTKG [CCDC138],0.12
9,SCMATVIHNPLKALGDQFYKEAIEHC [DPF3],0.13
10,FSVDLNASRSLSQVAMDLHEAVSMKL [DCST2],0.03
11,LCKEKPTTALLDKVADNLAIQLAAVT [ILF3],0.03
12,DQEEACASRQLHSLASFSTVTARRNP [INCA1],0.12
13,MRPEIWIAQEDRRIGDEFNAYYARRV [BCL2L11],0.09

# The remaining lines, values ahead:
row,SPOT signal as a fraction of Bim BH3's signal on the same receptor and array,Binder
1,0.75,RQAFYLHTTKLTRIARRLCREILRPW [MTA1]
2,0.03,ASEAMLFEEALEKYGKDFNDIRQDFL
3,0.08,LFRRRDISSSLNSLADSNAREFEEES
4,0.54,NRKGEKNGKGLRHFSMKVCEKVQRKG [TFDP1]
5,0.03,ALTVKEMAQMLQSFGTELAETELPDD [MCF2]
6,0.55,HRTSNVLTLSLKRFANFSGGKITKDV [USP36]
7,0.04,DATHDEAVQALKRAGKEVLLEVKYMR [SNTB1]
8,0.89,ELLRLRQHWKLRKVGDKILGDLSYRS [MED17]
9,0.04,KEVEDCVPVFLKHIAHDIYVCGKTIN [TUBGCP6]

# Molecular target: Bcl-2, P10415
# Sequence (P10415 1-217): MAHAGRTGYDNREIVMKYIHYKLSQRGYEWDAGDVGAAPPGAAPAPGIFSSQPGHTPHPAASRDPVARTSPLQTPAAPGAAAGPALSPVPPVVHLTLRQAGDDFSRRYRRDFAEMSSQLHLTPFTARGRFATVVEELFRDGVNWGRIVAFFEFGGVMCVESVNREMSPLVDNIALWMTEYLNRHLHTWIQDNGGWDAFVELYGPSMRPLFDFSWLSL
# Assay: as above
row,Binder,SPOT signal as a fraction of Bim BH3's signal on the same receptor and array
1,IKEAADIIQKLHLIAQELPFDRFSEV [EXOC5],0.01
2,PFKKMDFSRNLYDIGEQLDSEDLASL [CASP8],0.02
3,KFMKTIPGTALVEMGDEYAVERAVTH [HNRPLL],0.01
4,NMSNYSSSSLLSGAGKDSLVEHDEEF [KIAA0367],0.01
5,KWTAEEVVLWLEQLGPWASLYRERFL [BFAR],0.02
6,EGMRTILVDWLVEVGEEYKLRAETLY [CCNA1],0.01
7,DGLDLPSETDLRILGCELIQAAGILL [CCNL1],0.01
8,GAQHSTMTSTLRRLGEDIFKGVVTKG [CCDC138],0.09
9,SCMATVIHNPLKALGDQFYKEAIEHC [DPF3],0.15
10,FSVDLNASRSLSQVAMDLHEAVSMKL [DCST2],0.01
11,LCKEKPTTALLDKVADNLAIQLAAVT [ILF3],0.01
12,DQEEACASRQLHSLASFSTVTARRNP [INCA1],0.08
13,MRPEIWIAQEDRRIGDEFNAYYARRV [BCL2L11],0.05

# The remaining lines, values ahead:
row,SPOT signal as a fraction of Bim BH3's signal on the same receptor and array,Binder
1,0.23,RQAFYLHTTKLTRIARRLCREILRPW [MTA1]
2,0.01,ASEAMLFEEALEKYGKDFNDIRQDFL
3,0.02,LFRRRDISSSLNSLADSNAREFEEES
4,0.18,NRKGEKNGKGLRHFSMKVCEKVQRKG [TFDP1]
5,0.01,ALTVKEMAQMLQSFGTELAETELPDD [MCF2]
6,0.2,HRTSNVLTLSLKRFANFSGGKITKDV [USP36]
7,0.01,DATHDEAVQALKRAGKEVLLEVKYMR [SNTB1]
8,0.33,ELLRLRQHWKLRKVGDKILGDLSYRS [MED17]
9,0.01,KEVEDCVPVFLKHIAHDIYVCGKTIN [TUBGCP6]

# Molecular target: T1, Mcl-1, Q07820
# Assay: as above
row,Binder,SPOT signal as a fraction of Bim BH3's signal on the same receptor and array
1,IKEAADIIQKLHLIAQELPFDRFSEV [EXOC5],0.09
2,PFKKMDFSRNLYDIGEQLDSEDLASL [CASP8],0.05
3,KFMKTIPGTALVEMGDEYAVERAVTH [HNRPLL],0.02
4,NMSNYSSSSLLSGAGKDSLVEHDEEF [KIAA0367],0.02
5,KWTAEEVVLWLEQLGPWASLYRERFL [BFAR],0.05
6,EGMRTILVDWLVEVGEEYKLRAETLY [CCNA1],0.05
7,DGLDLPSETDLRILGCELIQAAGILL [CCNL1],0.03
8,GAQHSTMTSTLRRLGEDIFKGVVTKG [CCDC138],0.43
9,SCMATVIHNPLKALGDQFYKEAIEHC [DPF3],0.02
10,FSVDLNASRSLSQVAMDLHEAVSMKL [DCST2],0.06
11,LCKEKPTTALLDKVADNLAIQLAAVT [ILF3],0.02
12,DQEEACASRQLHSLASFSTVTARRNP [INCA1],0.23
13,MRPEIWIAQEDRRIGDEFNAYYARRV [BCL2L11],0.05

# Now from value to binder:
row,SPOT signal as a fraction of Bim BH3's signal on the same receptor and array,Binder
1,0.41,RQAFYLHTTKLTRIARRLCREILRPW [MTA1]
2,0.03,ASEAMLFEEALEKYGKDFNDIRQDFL
3,0.04,LFRRRDISSSLNSLADSNAREFEEES
4,0.3,NRKGEKNGKGLRHFSMKVCEKVQRKG [TFDP1]
5,0.03,ALTVKEMAQMLQSFGTELAETELPDD [MCF2]
6,0.29,HRTSNVLTLSLKRFANFSGGKITKDV [USP36]
7,0.02,DATHDEAVQALKRAGKEVLLEVKYMR [SNTB1]
8,0.48,ELLRLRQHWKLRKVGDKILGDLSYRS [MED17]
9,0.02,KEVEDCVPVFLKHIAHDIYVCGKTIN [TUBGCP6]

# Molecular target: T2, Bfl-1, Q16548
# Assay: as above
row,Binder,SPOT signal as a fraction of Bim BH3's signal on the same receptor and array
1,IKEAADIIQKLHLIAQELPFDRFSEV [EXOC5],0.03
2,PFKKMDFSRNLYDIGEQLDSEDLASL [CASP8],0.02
3,KFMKTIPGTALVEMGDEYAVERAVTH [HNRPLL],0.02
4,NMSNYSSSSLLSGAGKDSLVEHDEEF [KIAA0367],0.01
5,KWTAEEVVLWLEQLGPWASLYRERFL [BFAR],0.04
6,EGMRTILVDWLVEVGEEYKLRAETLY [CCNA1],0.02
7,DGLDLPSETDLRILGCELIQAAGILL [CCNL1],0.01
8,GAQHSTMTSTLRRLGEDIFKGVVTKG [CCDC138],0.45
9,SCMATVIHNPLKALGDQFYKEAIEHC [DPF3],0.03
10,FSVDLNASRSLSQVAMDLHEAVSMKL [DCST2],0.08
11,LCKEKPTTALLDKVADNLAIQLAAVT [ILF3],0.02
12,DQEEACASRQLHSLASFSTVTARRNP [INCA1],0.35
13,MRPEIWIAQEDRRIGDEFNAYYARRV [BCL2L11],0.05

# Next, values leading:
row,SPOT signal as a fraction of Bim BH3's signal on the same receptor and array,Binder
1,0.72,RQAFYLHTTKLTRIARRLCREILRPW [MTA1]
2,0.01,ASEAMLFEEALEKYGKDFNDIRQDFL
3,0.05,LFRRRDISSSLNSLADSNAREFEEES
4,0.52,NRKGEKNGKGLRHFSMKVCEKVQRKG [TFDP1]
5,0.01,ALTVKEMAQMLQSFGTELAETELPDD [MCF2]
6,0.48,HRTSNVLTLSLKRFANFSGGKITKDV [USP36]
7,0.03,DATHDEAVQALKRAGKEVLLEVKYMR [SNTB1]
8,0.78,ELLRLRQHWKLRKVGDKILGDLSYRS [MED17]
9,0.03,KEVEDCVPVFLKHIAHDIYVCGKTIN [TUBGCP6]

# Molecular target: T3, Bcl-w, Q92843
# Assay: as above
row,Binder,SPOT signal as a fraction of Bim BH3's signal on the same receptor and array
1,IKEAADIIQKLHLIAQELPFDRFSEV [EXOC5],0.21
2,PFKKMDFSRNLYDIGEQLDSEDLASL [CASP8],0.03
3,KFMKTIPGTALVEMGDEYAVERAVTH [HNRPLL],0.02
4,NMSNYSSSSLLSGAGKDSLVEHDEEF [KIAA0367],0.02
5,KWTAEEVVLWLEQLGPWASLYRERFL [BFAR],0.03
6,EGMRTILVDWLVEVGEEYKLRAETLY [CCNA1],0.02
7,DGLDLPSETDLRILGCELIQAAGILL [CCNL1],0.01
8,GAQHSTMTSTLRRLGEDIFKGVVTKG [CCDC138],0.64
9,SCMATVIHNPLKALGDQFYKEAIEHC [DPF3],0.2
10,FSVDLNASRSLSQVAMDLHEAVSMKL [DCST2],0.03
11,LCKEKPTTALLDKVADNLAIQLAAVT [ILF3],0.02
12,DQEEACASRQLHSLASFSTVTARRNP [INCA1],0.2
13,MRPEIWIAQEDRRIGDEFNAYYARRV [BCL2L11],0.06

# Continued, values first:
row,SPOT signal as a fraction of Bim BH3's signal on the same receptor and array,Binder
1,0.89,RQAFYLHTTKLTRIARRLCREILRPW [MTA1]
2,0.02,ASEAMLFEEALEKYGKDFNDIRQDFL
3,0.04,LFRRRDISSSLNSLADSNAREFEEES
4,0.91,NRKGEKNGKGLRHFSMKVCEKVQRKG [TFDP1]
5,0.02,ALTVKEMAQMLQSFGTELAETELPDD [MCF2]
6,0.65,HRTSNVLTLSLKRFANFSGGKITKDV [USP36]
7,0.02,DATHDEAVQALKRAGKEVLLEVKYMR [SNTB1]
8,1.03,ELLRLRQHWKLRKVGDKILGDLSYRS [MED17]
9,0.02,KEVEDCVPVFLKHIAHDIYVCGKTIN [TUBGCP6]
